Molecular target: human serum albumin (human), P02768
Assay: sandwich ELISA, HSA coated at 10 µg/ml, conjugate at 1 µM, detection with anti-FITC antibody

- OD600: 0.38 OD600
B1: DOM7h-8cys/FITC conjugate (protein)
VL: DIQMTQSPSSLSASVGDRVTITCRASQSISSYLNWYQQKPGKAPKLLIYRNSPLQSGVPSRFSGSGSGTDFTLTISSLQPEDFATYYCQQTYRVPPTFGQGTKVEIKC
modifications: not checked

— patent US20090111745A1
